Source: patent US20200270125A1 (OMEROS, published 2020)
Where two headings read alike, the source gives them in different places.

T1: human MASP-3 (construct not stated) (human)
T1 construct: also called MASP-3 antigen
T1 chain: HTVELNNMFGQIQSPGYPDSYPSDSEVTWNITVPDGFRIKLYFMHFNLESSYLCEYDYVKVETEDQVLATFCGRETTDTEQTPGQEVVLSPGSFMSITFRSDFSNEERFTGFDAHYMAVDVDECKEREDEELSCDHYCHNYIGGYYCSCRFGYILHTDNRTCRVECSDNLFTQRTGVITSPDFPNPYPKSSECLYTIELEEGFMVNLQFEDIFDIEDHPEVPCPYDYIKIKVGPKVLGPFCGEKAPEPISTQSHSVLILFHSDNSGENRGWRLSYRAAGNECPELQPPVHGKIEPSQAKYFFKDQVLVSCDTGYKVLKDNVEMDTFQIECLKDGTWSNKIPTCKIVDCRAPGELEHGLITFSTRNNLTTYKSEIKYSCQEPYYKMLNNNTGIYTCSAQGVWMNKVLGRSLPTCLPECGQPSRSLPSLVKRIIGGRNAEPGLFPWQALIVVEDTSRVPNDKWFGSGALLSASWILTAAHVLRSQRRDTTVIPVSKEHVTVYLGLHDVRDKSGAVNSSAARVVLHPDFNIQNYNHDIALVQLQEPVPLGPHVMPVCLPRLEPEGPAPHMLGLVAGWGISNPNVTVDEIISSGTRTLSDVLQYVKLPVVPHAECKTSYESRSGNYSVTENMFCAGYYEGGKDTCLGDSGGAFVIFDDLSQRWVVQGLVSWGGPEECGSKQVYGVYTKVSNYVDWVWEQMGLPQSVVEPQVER


Columns and labels:
[1] = target: T1, human MASP-3 (construct not stated); test: ELISA, monovalent Fab
[2] = target: T1, human MASP-3 (construct not stated); test: ELISA, monovalent Fab

Binder | EC50 [1] | EC50 [2]
h4D5_19-1 Fab (VH-19 and VL-1) (Fab, V domains shown, Humanized monovalent Fab; also called h4D5_19-1 parental Fab) VH: QVQLVQSGAEVKKPGASVKVSCKASGYTFTTDDINWVRQAPGQGLEWIGWIYPRDDRTKYNDKFKDRATLTVDTSSNTAYMELSSLRSEDTAVYYCSSLEDTYWGQGTLVTVSS VL: DIVMTQSPDSLAVSLGERATINCKSSQSLLNSRTRKNYLAWYQQKPGQPPKLLIYWASTRESGVPDRFSGSGSGTDFTLTISSLQAEDVAVYYCKQSYNLYTFGQGTKVEIKR | 0.079 nM | 0.102 nM
h13B1_10-1 Fab (VH-10 and VL-1) (Fab, V domains shown, Humanized monovalent Fab; also called h13B1_10-1 parental Fab) VH: QVQLVQSGAEVKKPGASVKVSCKASGYTFTGKWIEWVRQAPGQGLEWIGEILPGTGSTNYNEKFKGRATFTADSSTSTAYMELSSLRSEDTAVYYCLRSEDVWGQGTLVTVSS VL: DIVMTQSPDSLAVSLGERATINCKSSQSLLNSRTRKNYLAWYQQKPGQPPKLLIYWASTRESGVPDRFSGSGSGTDFTLTISSLQAEDVAVYYCKQSYNIPTFGQGTKVEIKR | 0.097 nM | 0.1 nM
h13B1_9-1 Fab (VH-9 and VL-1) (Fab, V domains shown, Humanized monovalent Fab) VH: QVQLVQSGAEVKKPGASVKVSCKASGYTFTGKWIEWVRQAPGQGLEWIGEILPGTGSTNYAQKFQGRATFTADSSTSTAYMELSSLRSEDTAVYYCLRSEDVWGQGTLVTVSS VL: DIVMTQSPDSLAVSLGERATINCKSSQSLLNSRTRKNYLAWYQQKPGQPPKLLIYWASTRESGVPDRFSGSGSGTDFTLTISSLQAEDVAVYYCKQSYNIPTFGQGTKVEIKR | 0.101 nM | 
h4D5_14-1 Fab (VH-14 and VL-1) (Fab, V domains shown, Humanized monovalent Fab) VH: QVQLVQSGAEVKKPGASVKVSCKASGYTFTTDDINWVRQAPGQGLEWIGWIYPRDDRTKYNDKFKDKATLTVDTSSNTAYMELSSLRSEDTAVYYCSSLEDTYWGQGTLVTVSS VL: DIVMTQSPDSLAVSLGERATINCKSSQSLLNSRTRKNYLAWYQQKPGQPPKLLIYWASTRESGVPDRFSGSGSGTDFTLTISSLQAEDVAVYYCKQSYNLYTFGQGTKVEIKR | 0.085 nM | 
h10D12_45-21 Fab (VH-45 and VL-21) (Fab, V domains shown, Humanized monovalent Fab; also called h10D12_45-21 parental Fab) VH: QIQLVQSGSELKKPGASVKVSCKASGYIFTSYGMSWVRQAPGKGLKWMGWINTYSGVPTYADDFKGRFVFSLDTSVRTPYLQISSLKAEDTAVYFCARGGEAMDYWGQGTLVTVSS VL: not shown | 0.108 nM | 0.108 nM
h10D12-45-21-GA Fab (VH-45 and VL-21-GA) (Fab, V domains shown, Humanized monovalent Fab; also called 10D12-GA mutant) VH: QIQLVQSGSELKKPGASVKVSCKASGYIFTSYGMSWVRQAPGKGLKWMGWINTYSGVPTYADDFKGRFVFSLDTSVRTPYLQISSLKAEDTAVYFCARGGEAMDYWGQGTLVTVSS VL: DVLMTQTPLSLSVTPGQPASISCKSSQSLLDSDAKTYLNWLLQRPGQSPKRLIYLVSKLDSGVPDRFSGSGSGTDFTLKISRVEAEDVGVYYCWQGTHFPWTFGQGTKVEIKR |  | 0.181 nM
h10D12_49-21 Fab (VH-49 and VL-21) (Fab, V domains shown, Humanized monovalent Fab) VH: QIQLVQSGSELKKPGASVKVSCKASGYIFTSYGMSWVRQAPGKGLKWMGWINTYSGVPTYADDFKGRFVFSLDTSVRTPYLQISSLKAEDTATYFCARGGEAMDYWGQGTLVTVSS VL: not shown | 0.115 nM | 
h10D12-45-21-DE Fab (VH-45 and VL-21-DE) (Fab, V domains shown, also called 10D12-DE mutant) VH: QIQLVQSGSELKKPGASVKVSCKASGYIFTSYGMSWVRQAPGKGLKWMGWINTYSGVPTYADDFKGRFVFSLDTSVRTPYLQISSLKAEDTAVYFCARGGEAMDYWGQGTLVTVSS VL: DVLMTQTPLSLSVTPGQPASISCKSSQSLLDSEGKTYLNWLLQRPGQSPKRLIYLVSKLDSGVPDRFSGSGSGTDFTLKISRVEAEDVGVYYCWQGTHFPWTFGQGTKVEIKR |  | 0.326 nM

More lines, now with the values ahead:

EC50 [1] | EC50 [2] | Binder
 | 0.105 nM | h13B1_10-1-NA Fab (VH-10 and VL-1-NA) (Fab, V domains shown, Humanized monovalent Fab; also called 13B1-NA) VH: QVQLVQSGAEVKKPGASVKVSCKASGYTFTGKWIEWVRQAPGQGLEWIGEILPGTGSTNYNEKFKGRATFTADSSTSTAYMELSSLRSEDTAVYYCLRSEDVWGQGTLVTVSS VL: DIVMTQSPDSLAVSLGERATINCKSSQSLLASRTRKNYLAWYQQKPGQPPKLLIYWASTRESGVPDRFSGSGSGTDFTLTISSLQAEDVAVYYCKQSYNIPTFGQGTKVEIKR
 | 0.12 nM | h13B1_10-1-ST Fab (VH-10 and VL-1-ST) (Fab, V domains shown, also called 13B1-ST) VH: QVQLVQSGAEVKKPGASVKVSCKASGYTFTGKWIEWVRQAPGQGLEWIGEILPGTGSTNYNEKFKGRATFTADSSTSTAYMELSSLRSEDTAVYYCLRSEDVWGQGTLVTVSS VL: DIVMTQSPDSLAVSLGERATINCKSSQSLLNTRTRKNYLAWYQQKPGQPPKLLIYWASTRESGVPDRFSGSGSGTDFTLTISSLQAEDVAVYYCKQSYNIPTFGQGTKVEIKR
 | 0.138 nM | h13B1_10-1-NQ Fab (VH-10 and VL-1-NQ) (Fab, V domains shown, also called 13B1-NQ) VH: QVQLVQSGAEVKKPGASVKVSCKASGYTFTGKWIEWVRQAPGQGLEWIGEILPGTGSTNYNEKFKGRATFTADSSTSTAYMELSSLRSEDTAVYYCLRSEDVWGQGTLVTVSS VL: DIVMTQSPDSLAVSLGERATINCKSSQSLLQSRTRKNYLAWYQQKPGQPPKLLIYWASTRESGVPDRFSGSGSGTDFTLTISSLQAEDVAVYYCKQSYNIPTFGQGTKVEIKR
